# Assay results as given in patent publication US20100022459A1 (TEL AVIV UNIVERSITY FUTURE TECHNOLOGY DEVELOPMENT L P, published 2010).
# Ends that are not written are not given here. cellulose membrane = cellulose membrane support bound via the C-terminal amino acid
# Biological target: MBP (UniProt P0AEX9 27-392 = MBP)
# Experiment: hIAPP peptide array incubated with MBP alone, immunoblot
# Protocol: The cellulose membrane was then washed repeatedly with 0.05% Tween 20 in TBS. […] HRP-conjugated goat anti mouse antibodies (Jackson Laboratories, USA) were used as a secondary antibody. Immunoblots were developed using the Renaissance western blot Chemiluminescence Reagent (NEN, USA) according to Manufacturer's instructions and signal was quantified using densitometry. Regeneration of the cellulose membrane for reuse was carried out by sequential washing with Regeneration buffer I including 62.5 mM Tris, 2% SDS, 100 Mm 2-mercaptoethanol, pH 6.7, and Regeneration buffer II including 8 M urea, 1% SDS, 0.1% 2-mercaptoethanol. Efficiency of the washing steps was monitored by contacting the membrane with the chemiluminescence reagent, as described.
row,Binder,binding result
1,"Ac-ATQRLANFLV (also: C-terminal residue bound to cellulose membrane, 61-88; also called decamer of the hIAPP peptide array) [hIAPP8-17]",no binding
2,"Ac-TQRLANFLVH (also: C-terminal residue bound to cellulose membrane, 61-88; also called decamer of the hIAPP peptide array) [hIAPP9-18]",no binding
3,"Ac-QRLANFLVHS (also: C-terminal residue bound to cellulose membrane, 61-88; also called decamer of the hIAPP peptide array) [hIAPP10-19]",no binding
4,"Ac-RLANFLVHSS (also: C-terminal residue bound to cellulose membrane, 61-88; also called decamer of the hIAPP peptide array) [hIAPP11-20]",no binding
5,"Ac-LANFLVHSSN (also: C-terminal residue bound to cellulose membrane, 61-88; also called decamer of the hIAPP peptide array) [hIAPP12-21]",no binding
6,Ac-ANFLVHSSNN-{cellulose membrane} (61-88; also called decamer of the hIAPP peptide array) [hIAPP13-22],no binding
7,Ac-NFLVHSSNNF-{cellulose membrane} (61-88; also called decamer of the hIAPP peptide array) [hIAPP14-23],no binding
8,Ac-FLVHSSNNFG-{cellulose membrane} (61-88; also called decamer of the hIAPP peptide array) [hIAPP15-24],no binding
9,Ac-LVHSSNNFGA-{cellulose membrane} (61-88; also called decamer of the hIAPP peptide array) [hIAPP16-25],no binding
10,Ac-VHSSNNFGAI-{cellulose membrane} (61-88; also called decamer of the hIAPP peptide array) [hIAPP17-26],no binding
11,Ac-HSSNNFGAIL-{cellulose membrane} (61-88; also called decamer of the hIAPP peptide array) [hIAPP18-27],no binding
12,"Ac-SSNNFGAILS (also: C-terminal residue bound to cellulose membrane, 61-88; also called decamer of the hIAPP peptide array) [hIAPP19-28]",no binding
13,"Ac-NNFGAILSST (also: C-terminal residue bound to cellulose membrane, 61-88; also called decamer of the hIAPP peptide array) [hIAPP21-30]",no binding
14,Ac-NFGAILSSTN-{cellulose membrane} (61-88; also called decamer of the hIAPP peptide array) [hIAPP22-31],no binding
15,Ac-FGAILSSTNV-{cellulose membrane} (61-88; also called decamer of the hIAPP peptide array) [hIAPP23-32],no binding
16,Ac-GAILSSTNVG-{cellulose membrane} (61-88; also called decamer of the hIAPP peptide array) [hIAPP24-33],no binding
17,Ac-AILSSTNVGS-{cellulose membrane} (61-88; also called decamer of the hIAPP peptide array) [hIAPP25-34],no binding
18,Ac-ILSSTNVGSN-{cellulose membrane} (61-88; also called decamer of the hIAPP peptide array) [hIAPP26-35],no binding
19,Ac-LSSTNVGSNT-{cellulose membrane} (61-88; also called decamer of the hIAPP peptide array) [hIAPP27-36],no binding
20,"Ac-KCNTATCATQ (cysteine pairing not given here; also: C-terminal residue bound to cellulose membrane, 61-88 (hIAPP1-10 ... hIAPP28-37); also called decamer of the hIAPP peptide array) [hIAPP1-10]",no binding
21,Ac-SSTNVGSNTY-{cellulose membrane} (61-88; also called decamer of the hIAPP peptide array) [hIAPP28-37],no binding
22,"Ac-CNTATCATQR (cysteine pairing not given here; also: C-terminal residue bound to cellulose membrane, 61-88; also called decamer of the hIAPP peptide array) [hIAPP2-11]",no binding
23,"Ac-NTATCATQRL (also: C-terminal residue bound to cellulose membrane, 61-88; also called decamer of the hIAPP peptide array) [hIAPP3-12]",no binding
24,Ac-TATCATQRLA-{cellulose membrane} (61-88; also called decamer of the hIAPP peptide array) [hIAPP4-13],no binding
25,Ac-ATCATQRLAN-{cellulose membrane} (61-88; also called decamer of the hIAPP peptide array) [hIAPP5-14],no binding
26,Ac-TCATQRLANF-{cellulose membrane} (61-88; also called decamer of the hIAPP peptide array) [hIAPP6-15],no binding
27,"Ac-CATQRLANFL (also: C-terminal residue bound to cellulose membrane, 61-88; also called decamer of the hIAPP peptide array) [hIAPP7-16]",no binding
